Columns and labels:
[1] = biological target: T1, CD81 (endogenous, human cells) (human (endogenous in Daudi, Ramos, …, UniProt P60033 1-236)); experiment: cell-based or functional assay
T1 sequence: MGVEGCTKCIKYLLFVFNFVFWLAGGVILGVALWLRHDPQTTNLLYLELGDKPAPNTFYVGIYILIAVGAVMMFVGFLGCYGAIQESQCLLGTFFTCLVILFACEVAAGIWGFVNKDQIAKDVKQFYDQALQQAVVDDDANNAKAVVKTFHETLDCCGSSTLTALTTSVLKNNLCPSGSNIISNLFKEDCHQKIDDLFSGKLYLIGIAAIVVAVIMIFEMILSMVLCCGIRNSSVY

[2] = biological target: HCV E1E2 heterodimers (expressed from recombinant adenovirus Ad/E1E2p7NS2) (hepatitis C virus); experiment: pull-down; E1E2 on mAb H53 beads; Huh-7/pcDNA3.1 cells lysed in Bj/EDTA, ratio of the CD81 band to that in TX/EDTA
[3] = biological target: HCV E1E2 heterodimers (expressed from recombinant adenovirus Ad/E1E2p7NS2) (hepatitis C virus); experiment: pull-down; E1E2 on mAb H53 beads; Huh-7/EWI-2FLAG^fur cells lysed in Bj/EDTA, ratio of the CD81 band to that in TX/EDTA

B1: EWI-2wint with the C-terminal FLAG epitope, produced by furin cleavage of EWI-2FLAG^fur in Huh-7 cells (domain or fragment)
chain: QAPTSPPRMTVHEGQELALGCLARTSTQKHTHLAVSFGRSVPEAPVGRSTLQEVVGIRSDLAVEAGAPYAERLAAGELRLGKEGTDRYRMVVGGAQAGDAGTYHCTAAEWIQDPDGSWAQIAEKRAVLAHVDVQTLSSQLAVTVGPGERRIGPGEPLELLCNVSGALPPAGRHAAYSVGWEMAPAGAPGPGRLVAQLDTEGVGSLGPGYEGRHIAMEKVASRTYRLRLEAARPGDAGTYRCLAKAYVRGSGTRLREAASARSRPLPVHVREEGVVLEAVAWLAGGTVYRGETASLLCNISVRGGPPGLRLAASWWVERPEDGELSSVPAQLVGGVGQDGVAELGVRPGGGPVSVELVGPRSHRLRLHSLGPEDEGVYHCAPSAWVQHADYSWYQAGSARSGPVTVYPYMHALDTLFVPLLVGTGVALVTGATVLGTITCCFMKRLRKR
[1]
  inhibition of the infectivity of HCVcc expressing Renilla luciferase on Huh-7 cells expressing EWI-2FLAG^fur (clone A6), relative to Huh-7 cells; the pair that is blocked: HCV glycoproteins with CD81: 80%

B2: CD81 (endogenous, human cells) (natural protein)
chain: T1 sequence
[2]
  ratio [CD81 band intensity in E1E2 IP in Bj/EDTA buffer]/[CD81 band intensity in E1E2 IP in TX/EDTA buffer]: 0.84
[3]
  ratio [CD81 band intensity in E1E2 IP in Bj/EDTA buffer]/[CD81 band intensity in E1E2 IP in TX/EDTA buffer]: 0.27
